The values below come from US20240368286A1 (SHANGHAI JMT BIO TECHNOLOGY, published 2024).

Some results are limits rather than exact numbers.

The target of test [1] is T1, Human GFRAL (hGFRAL) on HEK293 reporter cells with human RET (human, UniProt Q6UXV0 19-394).
T1 sequence (looked up): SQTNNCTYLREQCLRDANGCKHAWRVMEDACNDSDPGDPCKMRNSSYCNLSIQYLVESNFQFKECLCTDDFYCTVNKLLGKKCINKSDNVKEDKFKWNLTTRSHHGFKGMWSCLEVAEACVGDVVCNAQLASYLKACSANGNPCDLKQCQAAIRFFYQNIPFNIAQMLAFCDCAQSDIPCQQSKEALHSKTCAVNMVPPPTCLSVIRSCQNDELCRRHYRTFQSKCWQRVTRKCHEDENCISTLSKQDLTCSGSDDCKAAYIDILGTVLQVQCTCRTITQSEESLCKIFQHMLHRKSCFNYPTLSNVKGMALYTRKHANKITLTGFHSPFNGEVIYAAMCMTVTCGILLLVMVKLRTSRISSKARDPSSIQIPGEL
The test can be described thus: cell-based or functional assay.

Test [2] deals with T2, Mouse GFRAL (mGFRAL) on HEK293 reporter cells with mouse RET (mouse, UniProt Q6SJE0 20-393).
T2 sequence (looked up): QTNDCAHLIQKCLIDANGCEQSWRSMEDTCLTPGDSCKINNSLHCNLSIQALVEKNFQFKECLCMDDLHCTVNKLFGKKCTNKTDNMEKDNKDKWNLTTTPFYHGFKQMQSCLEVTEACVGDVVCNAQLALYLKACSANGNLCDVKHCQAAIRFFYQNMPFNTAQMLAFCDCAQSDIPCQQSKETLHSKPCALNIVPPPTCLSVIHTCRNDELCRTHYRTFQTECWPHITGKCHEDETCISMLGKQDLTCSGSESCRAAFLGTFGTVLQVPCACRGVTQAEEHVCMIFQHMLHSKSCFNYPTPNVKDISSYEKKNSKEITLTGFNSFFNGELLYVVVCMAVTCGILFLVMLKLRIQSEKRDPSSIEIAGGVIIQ
The test can be described thus: cell-based or functional assay.

In test [3] the target is T3, Human GFRAL-His protein (human, UniProt Q6UXV0 19-351).
T3 construct: also called human GFRAL-His fusion protein; not shown: His tag
T3 sequence (looked up): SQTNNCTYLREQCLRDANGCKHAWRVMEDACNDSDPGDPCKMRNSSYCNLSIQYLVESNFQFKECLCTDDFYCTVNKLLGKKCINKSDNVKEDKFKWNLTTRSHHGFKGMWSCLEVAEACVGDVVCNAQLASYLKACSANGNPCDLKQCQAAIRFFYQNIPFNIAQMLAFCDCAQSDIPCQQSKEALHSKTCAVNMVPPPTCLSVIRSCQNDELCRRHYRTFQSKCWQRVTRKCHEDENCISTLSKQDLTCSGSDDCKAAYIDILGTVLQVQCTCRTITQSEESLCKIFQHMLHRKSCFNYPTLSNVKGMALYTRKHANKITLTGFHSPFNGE
Nature of the test: ELISA, antigen coated on plate, purified antibody titrated, HRP anti-mouse IgG detection. As for the experimental part:
(§1) The ELISA assay had the following protocols. Human GFRAL-His protein, cynomolgus monkey GFRAL-His protein, or mouse GFRAL-Fc protein were coated on 96-well plates, and after blocking the wells with PBS/1% BSA solution, the hybridoma supernatant or purified antibodies were added to the reaction wells. After incubation for 1 hour at room temperature, HRP-labeled anti-mouse IgG (Fab region) antibody was added to the reaction wells to incubate for an additional hour at room temperature. After the substrate and stop solution were added successively, the OD₄₅₀ values were read. The OD₄₅₀ values were used to verify and assess the binding ability of the antibodies to the GFRAL proteins.
(In general: In an ELISA, binding on a coated surface is turned into a signal by an enzyme label.)

In test [4] the target is Cynomolgus monkey GFRAL-His protein (cynomolgus monkey). The description is as above. As for the experimental part: as §1
For test [5], the target named is T4, Human GFRAL protein (Biacore analyte) (human, UniProt Q6UXV0 19-351, limits assumed).
T4 construct: also called hGFRAL
T4 sequence (looked up): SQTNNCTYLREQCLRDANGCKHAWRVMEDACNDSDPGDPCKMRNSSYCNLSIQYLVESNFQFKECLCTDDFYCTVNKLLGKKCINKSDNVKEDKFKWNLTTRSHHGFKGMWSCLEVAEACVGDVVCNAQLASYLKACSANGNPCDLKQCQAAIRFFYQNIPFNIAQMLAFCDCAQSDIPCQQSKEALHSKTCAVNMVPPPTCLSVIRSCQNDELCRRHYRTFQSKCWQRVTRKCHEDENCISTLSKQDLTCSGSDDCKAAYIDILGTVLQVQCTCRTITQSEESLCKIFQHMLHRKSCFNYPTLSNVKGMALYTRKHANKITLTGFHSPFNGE
The test can be described thus: Biacore SPR, antibody captured via anti-human Fc on CM5, GFRAL injected, 25 C. Here is the method:
Binding affinity assays were performed for three antibody strains 168A7, 8E10 and 26D7 based on the Biacore affinity assay. The binding affinities of purified antibodies to human or mouse GFRAL were assessed by measuring the equilibrium dissociation constants (KD). The anti-human Fc antibody was immobilized in the flow cell of the CM5 chip according to the instructions of the amino-coupled kit (catalogue number: BR100050, Cytiva). Purified antibodies (˜300 RU) were captured on flow cells 2, 3 and 4 using flow cell 1 as a reference. Human or mouse GFRAL protein (in an HBS-EP buffer) was then injected at a flow rate of 30 μL/min and the binding kinetics were evaluated at 25° C. The results were as follows (FIGS. 1A-1C, Table 4)

The target in test [6] is T5, Mouse GFRAL-Fc protein (mouse, UniProt Q6SJE0 20-349, limits assumed).
T5 construct: not shown: Fc
T5 sequence (looked up): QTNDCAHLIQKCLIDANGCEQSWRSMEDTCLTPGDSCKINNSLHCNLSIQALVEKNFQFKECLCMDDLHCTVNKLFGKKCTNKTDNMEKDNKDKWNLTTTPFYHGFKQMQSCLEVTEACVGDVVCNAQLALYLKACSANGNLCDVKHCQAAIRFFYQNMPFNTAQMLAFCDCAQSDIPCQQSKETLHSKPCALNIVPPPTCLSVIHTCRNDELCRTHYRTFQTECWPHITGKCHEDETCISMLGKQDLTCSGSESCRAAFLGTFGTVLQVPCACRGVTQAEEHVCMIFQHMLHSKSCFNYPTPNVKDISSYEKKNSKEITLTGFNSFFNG
The test can be described thus: ELISA, antigen coated on plate, purified antibody titrated, HRP anti-mouse IgG detection. As for the experimental part: as §1

B1: 61G8 (antibody, V domains shown)
VH: QVQLKESGPGLVAPSQSLSITCTVSGFSLTGYGVNWVRQSPGKGLEWLGMIWGDGTTDYNSALKSRLTIRKDNSKSQVFLRMNSLQTDDTARYYCARDPKYNYGYAMDYWGQGTSVTVSS
VL: DIVLTQAPGSLAVSLGQRATISCRASESVDNFGNSFMHWYQQKPGQSPKLLIYRASNLESGIPARFSGSGSRTDFTLTINPVEADDVATYYCQQTNEEPYTFGGGTKLEIE
notes: Murine hybridoma antibody, purified
Turning to B1, in test [1], the “IC50 (nM), luciferase reporter gene assay, Human GFRAL/human RET” value (“IC50 (nM) … Human GFRAL/human RET” for short) worked out at 11.6 nM. Moreover, the “IC50 (nM), luciferase reporter gene assay, Mouse GFRAL/mouse RET” value (“IC50 (nM) … Mouse GFRAL/mouse RET” below) in test [2] was above 694 nM. The EC50 (usually the midpoint of the concentration-response curve) in test [3] worked out at 0.07 nM; in test [4] it was 0.08 nM.

B2: 168A7 (antibody, V domains shown)
VH: QVTLKESGPGILKPSQTLSLTCSFSGFSLSTSDMGVGWIRQPSGKGLEWLAHIWWDDDKYYNPSLKRQLTISKDNSRNQVFLKISSVDTTDTATYYCARLYDYDDEYYFDYWGQGTTLTVSS
VL: DIQMTQTKSSLSASLGDRVTISCRASQDSNNYLNWYQQKPDGTVKLLIYYTSRLHSGVPSRFSGSGSGTDYSLTISNLEHEDIATYFCQQGNTIPWTFGGGTKLEIK
notes: as for B1
Regarding B2, in test [1], the “IC50 (nM) … Human GFRAL/human RET” value was found to be 3.29 nM. Moreover, the “IC50 (nM) … Mouse GFRAL/mouse RET” value in test [2] was above 694 nM. Besides, in test [5], the Kd (commonly the concentration at which binding is half-saturated) was found to be 1.45 pM and the koff (in general, a measure of how fast the partners let go of each other) is 7.06e-05 s⁻¹. Further, the EC50 in test [3] came to 1.87 nM. Further, it took 0.09 nM to reach a half-maximal effect in test [4] (EC50).

B3: 8E10 (antibody, V domains shown)
VH: QVQLQQSGSELVRPGSSVKISCRASGYTFSNYWMNWVKQRPGQGLEWIGQIYPGDDDADYNGKFQGKATLTADKSSSTAYMQLNTLTSEDSAVYFCTRSGRRDFDYWGQGTTLTVSS
VL: NIVLTQSPASLAVSLGQRATISCRASESIDNYGNSFMHWYQQKPGQPPKLLIYRASNLESGVPARFSGSGSRTDFTLTIDPVEADDAATYYCQQNNEDPYTFGGGTKLEIK
notes: as for B1
Regarding B3, the “IC50 (nM) … Human GFRAL/human RET” value in test [1] came to 3.33 nM. Besides, the “IC50 (nM) … Mouse GFRAL/mouse RET” value in test [2] is above 694 nM. This molecule had a Kd in test [5] of 17.9 pM. The same molecule gave a koff in test [5] of 0.000404 s⁻¹. Moreover, the EC50 was found to be 0.05 nM in test [3] and 0.06 nM in test [4].

B4: 33B12 (antibody, V domains shown)
VH: QVQLQQPGTELVKPGASVKLSCKASGYTFTRNWMHWLKQRPGQGLEWIGEIDPSDSYTHYNQKFKGKATLTVEMSSSTAYMQLRSLTSEDSAVYYCARVGNYDNGTDRLYAMDYWGQGTSVTVSS
VL: DIVLTQSPASLAVSLGQRATISCRASESVDNFGNTFLHWFRQKPGQPPKLLIYRASNLESGIPARFSGSGSRTDFTLTINPVEADDVATYYCQQNNEDPWTFGGGTKLEIK
notes: as for B1
B4: the “IC50 (nM) … Human GFRAL/human RET” value in test [1] is 7.04 nM. In addition, in test [2], the “IC50 (nM) … Mouse GFRAL/mouse RET” value was above 694 nM. Moreover, the EC50 in test [3] is 0.06 nM; in test [4], 0.08 nM.

B5: 82G8 (antibody, V domains shown)
VH: QVQLKESGPGLVAPSQSLSITCTVSGFSLTGHGVNWVRQPPGKGLEWLGMIWGDGYTDYNSALKSRLSISKDNSKSQVFLKMNSLQTDDTATYYCARDTYGRTYDYAMDYWGQGTSVTVSS
VL: DIVLTQSPASLAVSLGQRAAISCRASESVDNYGNSFMHWYQQKPGQPPKLLIYRASNLESGIPARFSGSGSRTDFTLTINPVEADDVATYYCQQSNEDPRTFGGGTKLEIK
notes: as for B1
Consider B5, for which, in test [1], the “IC50 (nM) … Human GFRAL/human RET” value amounted to 5.67 nM. Besides, in test [2], the “IC50 (nM) … Mouse GFRAL/mouse RET” value was above 694 nM. Also, the EC50 amounted to 0.03 nM in test [3] and 0.04 nM in test [4].

B6: 96C12 (antibody, V domains shown)
VH: RVQLRESGPGLVAPSQSLSITCTVSGFSLTGYSVNWVRQPPGKGLEWLGMIWGDGSTDYNSALKSRLSISKDNSKSQVFLKMNSLQTDDTARYYCARDRDYRYDGGYIMDSWGQGTSVTVSS
VL: DIVLTQSPGSLAVSLGQRATISCRASESVDNFGNSFLHWYQQKPGQPPKLLIYRASNLESGVPARFSGSGSRTDFTLTISPVEADDVATYYCQQSNEDPRTFGGGTKLEIR
notes: as for B1
In the case of B6, the “IC50 (nM) … Human GFRAL/human RET” value in test [1] came out at 6.42 nM. Moreover, the “IC50 (nM) … Mouse GFRAL/mouse RET” value in test [2] is above 694 nM. In addition, the EC50 in test [3] and in test [4] was 0.03 nM throughout.

B7: 36D1 (antibody, V domains shown)
VH: QVQLQQPGTEFVKPGASVKLSCKASGYTFTRNWMHWLKQRPGQGLEWIGEIDPSDSYTHYNQKFKGKATLTVDKSSSTAYMQLSSLTSEDSAVYYCARVGNYDNGKDRLYAMDYWGQGTSVTVSS
VL: DIVLTQSPASLAVSLGQRATISCRASESVDNFGNTFLHWFRQKPGQPPKLLIYRASNLESGIPARFSGSGSRTDFTLTINPVEADDVATYYCQQNNEDPWTFGGGTKLEIK
notes: as for B1
Take B7: the “IC50 (nM) … Human GFRAL/human RET” value in test [1] was found to be 6.89 nM. For the same molecule, the “IC50 (nM) … Mouse GFRAL/mouse RET” value in test [2] is above 694 nM. In addition, the figures for the EC50 in test [3] and in test [4] were 0.18 nM and 0.07 nM, respectively.

B8: 174D6 (antibody, V domains shown)
VH: QVQLKQSGPGLVQPSQSLSITCTVSGFSLTSYGVHWVRQSPGKGLEWLGVIWSGGRTDYNAAFISRLNISKDSSKSQVFFKMNSLQADDTAIYYCARKGSSYYGLYYYGMDFWGQGTSVTVSS
VL: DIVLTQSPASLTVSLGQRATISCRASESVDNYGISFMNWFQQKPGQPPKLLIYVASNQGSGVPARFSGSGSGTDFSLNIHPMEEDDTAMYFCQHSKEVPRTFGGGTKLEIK
notes: as for B1
As for B8, in test [1], the “IC50 (nM) … Human GFRAL/human RET” value stood at 104 nM. Besides, the “IC50 (nM) … Mouse GFRAL/mouse RET” value in test [2] was above 694 nM. Besides, the EC50 was 0.28 nM in test [3], 0.07 nM in test [4] and 0.14 nM in test [6].

B9: 174E10 (antibody, V domains shown)
VH: QVQLKQSGPGLVQPSQSLSITCTVSGFSLTSYGVHWVRQSPGKGLEWLGVIWSGGRIDYNAAFISRLSISKDNSKSQVFFKMNSLQADDTAIYYCARKGSSYYGLYYYGMDYWGQGTSVTVSS
VL: DIVMTQSPSSLTVTAGEKVTMSCKSSQSLLNSGNQKNYLTWYQQKSGQTPKLLIYWASTRESGVPDRFTGSGSGTDFTLTISSVQAEDLAVYYCQNDYGYPLTFGAGTKLELK
notes: as for B1
For B9, the “IC50 (nM) … Human GFRAL/human RET” value in test [1] came out at 37.2 nM. In addition, in test [2], the “IC50 (nM) … Mouse GFRAL/mouse RET” value turned out to be 105 nM. In addition, the figures for the EC50 in test [3], in test [4] and in test [6] were 0.18 nM, 0.06 nM and 0.12 nM, respectively.
